Series [1] has as its target endogenous NF-κB1 p105 (HeLa, Jurkat and 293 cells) (UniProt P19838). Put plainly: cell-based or functional assay.
Series [2] addresses Myc-TPL-2 (Homo sapiens (Human), UniProt P41279 1-467). Description: cell-based or functional assay.
Series [3] has as its target T1, Myc-Raf1(CAAX) MEK kinase activity (Homo sapiens, UniProt P04049).
T1 construct: CAAX membrane-targeting motif (C); made in house
Description: In vitro MEK kinase assay, activated Raf1. It counts as biochemical.

In series [4] the target is T2, HA-p105(369-969) (Homo sapiens (Human), UniProt P19838 368-968).
T2 construct: also called p105?N
T2 sequence: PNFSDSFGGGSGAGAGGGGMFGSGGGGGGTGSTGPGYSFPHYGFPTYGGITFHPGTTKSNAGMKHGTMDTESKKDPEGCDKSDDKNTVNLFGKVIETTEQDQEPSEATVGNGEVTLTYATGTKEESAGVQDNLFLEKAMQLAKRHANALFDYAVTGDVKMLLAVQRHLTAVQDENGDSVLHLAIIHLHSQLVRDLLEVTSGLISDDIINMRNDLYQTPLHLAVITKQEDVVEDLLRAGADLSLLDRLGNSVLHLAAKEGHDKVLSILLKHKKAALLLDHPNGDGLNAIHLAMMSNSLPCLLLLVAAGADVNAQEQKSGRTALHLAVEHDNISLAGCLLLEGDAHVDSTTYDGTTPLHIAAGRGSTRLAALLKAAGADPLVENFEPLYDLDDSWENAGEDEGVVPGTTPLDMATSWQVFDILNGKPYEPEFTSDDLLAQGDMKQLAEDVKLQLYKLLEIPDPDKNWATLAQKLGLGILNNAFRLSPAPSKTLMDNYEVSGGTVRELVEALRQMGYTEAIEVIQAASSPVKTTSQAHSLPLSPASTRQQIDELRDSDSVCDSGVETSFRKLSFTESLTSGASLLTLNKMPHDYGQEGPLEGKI
Put plainly: co-expression in HEK293 cells, isolation of the complex from lysates.

Series [5] addresses T3, recombinant p105 541-802 (Homo sapiens (Human), UniProt P19838 540-801).
T3 construct: Made in E. coli as a GST fusion and cleaved from GST
T3 sequence: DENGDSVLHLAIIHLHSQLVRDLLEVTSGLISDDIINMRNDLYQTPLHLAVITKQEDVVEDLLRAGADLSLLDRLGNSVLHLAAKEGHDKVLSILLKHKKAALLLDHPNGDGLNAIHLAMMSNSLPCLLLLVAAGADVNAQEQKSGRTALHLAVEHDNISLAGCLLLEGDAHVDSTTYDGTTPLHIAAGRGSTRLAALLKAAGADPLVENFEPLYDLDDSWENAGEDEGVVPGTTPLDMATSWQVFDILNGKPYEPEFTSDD
Description: surface plasmon resonance (BIAcore), biotinylated peptide on streptavidin chip. Here is the method: Interaction between the TPL-2 C-terminus and recombinant p105 proteins was measured by surface plasmon resonance using the BIAcore system (BIAcore AB, Uppsala, Sweden; (Szabo, A., et al. (1995) Curr. Opin. Struct. biol. 5: 699-705)). The C-terminal 70 amino acids of TPL-2 (TPL-2₃₉₈₋₄₆₇) were synthesised as a biotinylated peptide (conjugated to the equivalent of Cys398 of full length TPL-2) and immobilized on a Streptavidin-coated sensor surface (Sensorchip SA, BIAcore AB). Recombinant p105 proteins were then injected at different concentrations and resonance signals monitored. Dissociation at 25° C. was measured by flushing the TPL-2/p105 complexes with HBS-P buffer (10 MM HEPES-pH7.4, 150 mM NaCl, 0.005% (v/v) polysorbate 20; BIAcore AB). Data were evaluated using BIAevaluation software, version 3.0.2.

Series [6] has as its target T4, endogenous p105 (mouse 3T3 fibroblasts) (mouse, UniProt P25799 1-971).
T4 sequence (looked up): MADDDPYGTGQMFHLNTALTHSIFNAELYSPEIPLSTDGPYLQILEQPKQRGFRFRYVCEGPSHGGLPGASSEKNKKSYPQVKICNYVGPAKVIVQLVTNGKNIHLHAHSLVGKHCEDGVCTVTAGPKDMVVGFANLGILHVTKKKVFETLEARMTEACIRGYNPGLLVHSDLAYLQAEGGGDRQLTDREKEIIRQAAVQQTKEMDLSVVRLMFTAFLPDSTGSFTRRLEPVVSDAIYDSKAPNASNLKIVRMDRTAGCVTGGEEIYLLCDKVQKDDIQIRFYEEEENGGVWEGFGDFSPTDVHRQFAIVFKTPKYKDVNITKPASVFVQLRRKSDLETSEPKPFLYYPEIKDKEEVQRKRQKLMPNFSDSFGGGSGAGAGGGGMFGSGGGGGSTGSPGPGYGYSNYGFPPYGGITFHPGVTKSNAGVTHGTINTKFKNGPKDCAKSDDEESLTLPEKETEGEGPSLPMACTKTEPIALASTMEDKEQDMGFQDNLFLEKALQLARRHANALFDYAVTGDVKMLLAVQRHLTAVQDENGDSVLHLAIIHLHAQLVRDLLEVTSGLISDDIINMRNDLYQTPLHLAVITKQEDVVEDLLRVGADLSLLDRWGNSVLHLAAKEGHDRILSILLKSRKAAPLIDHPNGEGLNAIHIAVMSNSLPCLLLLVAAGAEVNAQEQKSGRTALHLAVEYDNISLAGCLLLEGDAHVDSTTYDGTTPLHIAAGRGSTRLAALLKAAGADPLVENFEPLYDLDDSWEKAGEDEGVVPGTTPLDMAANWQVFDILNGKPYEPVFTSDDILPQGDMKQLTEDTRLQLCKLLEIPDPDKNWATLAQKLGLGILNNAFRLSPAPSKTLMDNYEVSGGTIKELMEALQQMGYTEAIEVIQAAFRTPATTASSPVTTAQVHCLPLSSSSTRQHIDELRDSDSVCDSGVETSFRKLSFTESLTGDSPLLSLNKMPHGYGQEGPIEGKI
Description: anti-TPL-2 immunoprecipitation from lysates of wild type mouse 3T3 fibroblasts, Western blot. As to the method:
(5.5.c) To determine whether p105 regulates the steady-state levels of endogenous TPL-2 protein, cell lysates were prepared from 3T3 fibroblasts derived from wild type and NF-κB1-deficient mice. TPL-2 was readily detected by Western blotting of anti-TPL-2 immunoprecipitates from wild type fibroblasts and was associated with endogenous p105.

Series [7] concerns the target T5, Myc-TPL-2ΔC MEK kinase activity (Rattus norvegicus, UniProt Q63562).
T5 construct: TPL-2ΔC which lacks the C-terminal 70 amino acids; made in house; host or cells: HEK 293 cells, transient transfection, anti-Myc immunoprecipitation
Description: In vitro MEK kinase assay with GST-MEK1(K207A) substrate, Myc-TPL-2ΔC. It counts as biochemical. Here is the method: Myc-TPL-2 or Myc-TPL-2ΔC were isolated by immunoprecipitation from lysates of transiently transfected 293 cells, as described above. immunoprecipitates were washed four times in Buffer A, followed by two washes in kinase buffer (50 mM Tris-pH7.5, 150 mM NaCl, 5 mM β-glycerophosphate, 2 mM dithiothreitol, 0.1 mM sodium vanadate, 10 mM MgCl2, 1 mM EGTA, 0.01% Brij35). Beads were then resuspended in 50μl of kinase buffer plus the indicated amounts of recombinant p105 protein and incubated at 4° C. for 30 min. […] The supernatant was removed, mixed with an equal volume of 2×sample buffer, Western blotted after 8%-acrylamide SDS-PAGE and probed with anti-phospho-MEK-½ antibody. Immunoprecipitated Myc-TPL-2 or Myc-TPL-2ΔC was eluted with Laemlli sample buffer from the remaining anti-Myc mAb beads and quantified by Western blotting.
(5.6.c) The inhibition of TPL-2 MEK kinase activity by p 105498-969 may be more efficient than the isolated p105 DD as the former protein contains a binding site for the TPL-2 C-terminus. It was, therefore, interesting to determine the sensitivity of TPL2ΔC catalytic activity to inhibition by p105. The specific activity of Myc-TPL-2ΔC, isolated by immunoprecipitation from transfected 293 cell lysates, was modestly (approximately 2-3 fold) increased relative to wild type Myc-TPL-2.

Series [8] addresses Myc-TPL-2ΔC (Homo sapiens (Human), UniProt P41279 1-397). Put plainly: cell-based or functional assay.

* marks the point of attachment. Biotin = O=C1N[C@H]2[C@H](CS[C@H]2CCCCC(=O)*)N1

Sequence of Myc-TPL-2ΔC (P41279 1-397, stated change not applied): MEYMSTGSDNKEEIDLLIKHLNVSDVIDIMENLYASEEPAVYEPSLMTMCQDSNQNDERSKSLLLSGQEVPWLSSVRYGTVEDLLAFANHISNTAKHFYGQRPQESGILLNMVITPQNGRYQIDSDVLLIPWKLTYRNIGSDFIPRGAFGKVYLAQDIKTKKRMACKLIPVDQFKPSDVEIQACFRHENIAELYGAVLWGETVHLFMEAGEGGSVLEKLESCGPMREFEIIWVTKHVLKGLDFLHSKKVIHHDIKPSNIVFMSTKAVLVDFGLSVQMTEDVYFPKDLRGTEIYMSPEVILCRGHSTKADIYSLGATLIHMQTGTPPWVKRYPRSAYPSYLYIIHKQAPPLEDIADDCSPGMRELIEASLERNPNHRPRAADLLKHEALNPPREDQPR
T5 sequence (Q63562 1-397, stated change not applied): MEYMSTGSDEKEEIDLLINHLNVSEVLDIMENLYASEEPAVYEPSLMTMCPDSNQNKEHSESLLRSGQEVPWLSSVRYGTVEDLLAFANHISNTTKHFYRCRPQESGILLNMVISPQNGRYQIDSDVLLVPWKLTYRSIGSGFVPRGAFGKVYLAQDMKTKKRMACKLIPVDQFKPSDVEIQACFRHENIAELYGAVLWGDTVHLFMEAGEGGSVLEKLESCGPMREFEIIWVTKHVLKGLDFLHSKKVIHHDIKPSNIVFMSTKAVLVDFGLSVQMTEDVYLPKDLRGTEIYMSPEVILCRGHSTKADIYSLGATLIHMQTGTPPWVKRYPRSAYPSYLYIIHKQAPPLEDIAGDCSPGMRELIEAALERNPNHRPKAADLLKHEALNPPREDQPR

For the molecule TPL-2ΔC (from UniProt P41279 1-397), in series [1], the NF-κB-dependent luciferase reporter gene in Jurkat T cells amounted to 12 fold.

B1: recombinant p105808-892 protein (p105 DD) (other)
chain: DMKQLAEDVKLQLYKLLEIPDPDKNWATLAQKLGLGILNNAFRLSPAPSKTLMDNYEVSGGTVRELVEALRQMGYTEAIEVIQAA
Consider B1, for which the “IC50 of inhibition of TPL-2 MEK kinase activity in vitro” value in series [2] was determined as 550 nM. In addition, in series [3], the “effect on Myc-Raf1(CAAX) MEK kinase activity” value is “no effect”.

B2: COT(131-411) (enzyme, not shown: small tags and cut ends)
chain: PWKLTYRNIGSDFIPRGAFGKVYLAQDIKTKKRMACKLIPVDQFKPSDVEIQACFRHENIAELYGAVLWGETVHLFMEAGEGGSVLEKLESCGPMREFEIIWVTKHVLKGLDFLHSKKVIHHDIKPSNIVFMSTKAVLVDFGLSVQMTEDVYFPKDLRGTEIYMSPEVILCRGHSTKADIYSLGATLIHMQTGTPPWVKRYPRSAYPSYLYIIHKQAPPLEDIADDCSPGMRELIEASLERNPNHRPRAADLLKHEALNPPREDQPRCTSLDSALLERKRL
notes: also called TPL-2 (131-411)
Turning to B2, in series [4], the binding result is “binds”.

B3: biotinylated TPL-2398-467 peptide (peptide)
peptide: C(Biotin)TSLDSALLERKRLLSRKELELPENIADSSCTGSTEESEMLKRQRSLYIDLGALAGYFNLVRGPPTLEYG
notes: Immobilized on a streptavidin-coated BIAcore sensor surface; also called TPL-2 peptide; TPL-2 C-terminus
Regarding B3, the binding result in series [5] was “no binding”.

B4: endogenous TPL-2 (mouse 3T3 fibroblasts) (enzyme, UniProt Q07174 1-467, looked up)
chain: MEYMSTGSDEKEEIDLLIKHLNVSEVIDIMENLYASEEPGVYEPSLMTMYPDSNQNEERSESLLRSGQEVPWLSSVRYGTVEDLLAFANHVSNMTKHFYGRRPQECGILLNMVISPQNGRYQIDSDVLLVPWKLTYRNIGSGFVPRGAFGKVYLAQDMKTKKRMACKLIPIDQFKPSDVEIQACFRHENIAELYGAVLWGDTVHLFMEAGEGGSVLEKLESCGPMREFEIIWVTKHILKGLDFLHSKKVIHHDIKPSNIVFMSTKAVLVDFGLSVKMTEDVYLPKDLRGTEIYMSPEVILCRGHSTKADIYSLGATLIHMQTGTPPWVKRYPRSAYPSYLYIIHKQAPPLEDIAGDCSPGMRELIEAALERNPNHRPKAADLLKHEALNPPREDQPRCQSLDSALFERKRLLSRKELQLPENIADSSCTGSTEESEVLRRQRSLYIDLGALAGYFNIVRGPPTLEYG
Regarding B4, in series [6], the binding result is “binds”.

B5: TPL-2398-467 peptide: synthetic peptide corresponding to the C-terminal 70 amino acids of TPL-2 (peptide)
peptide: CTSLDSALLERKRLLSRKELELPENIADSSCTGSTEESEMLKRQRSLYIDLGALAGYFNLVRGPPTLEYG
As for B5, the “effect on TPL-2ΔC in vitro MEK kinase activity” value in series [7] is given as “not found to affect”.

B6: recombinant p105498-969 protein (other)
chain: QDNLFLEKAMQLAKRHANALFDYAVTGDVKMLLAVQRHLTAVQDENGDSVLHLAIIHLHSQLVRDLLEVTSGLISDDIINMRNDLYQTPLHLAVITKQEDVVEDLLRAGADLSLLDRLGNSVLHLAAKEGHDKVLSILLKHKKAALLLDHPNGDGLNAIHLAMMSNSLPCLLLLVAAGADVNAQEQKSGRTALHLAVEHDNISLAGCLLLEGDAHVDSTTYDGTTPLHIAAGRGSTRLAALLKAAGADPLVENFEPLYDLDDSWENAGEDEGVVPGTTPLDMATSWQVFDILNGKPYEPEFTSDDLLAQGDMKQLAEDVKLQLYKLLEIPDPDKNWATLAQKLGLGILNNAFRLSPAPSKTLMDNYEVSGGTVRELVEALRQMGYTEAIEVIQAASSPVKTTSQAHSLPLSPASTRQQIDELRDSDSVCDSGVETSFRKLSFTESLTSGASLLTLNKMPHDYGQEGPLEGKI
With B6, the “IC50 of inhibition of TPL-2 MEK kinase activity (phosphorylation of GST-MEK1(K207A) in vitro)” value in series [2] is 90 nM. The “IC50 of inhibition of TPL-2ΔC MEK kinase activity in vitro” value in series [8] worked out at 1000 nM. In addition, in series [3], the “effect on Myc-Raf1(CAAX) MEK kinase activity” value is “unaffected”.

The values are drawn from patent US20030219427A1, “TPL-2/COT kinase and methods of use” (priority 1998, published 2003).
